Target: Spacer-GST
Experiment: SPR (Biacore X-100)

B1: CRB0017_IgG4 (antibody, V domains shown)
VH: QVQLQQSGAELAKPGASVKMSCKASGYTFTSYWMHWVKQRPGQGLEWIGYINPSTGYTEYNQKFKDKATLTADKSSSTAYMQLGSLTSEDSAVYYCARGGYDDLGYWGQGTTLTVSS
VL: DIVITQDELSNPVTSGESVSISCRSSKSLLYKDGKTYLYWFLQRPGQSPQLPIYLMSTRASGVSDRFSGSGSGTDFTLEISRVKAEDVGVYYCQQLVEYPYTFGGGTKLEIK
- Kd: 2.15 nM
